Results: patent US20240376170A1 (BRIGHT PEAK THERAPEUTICS, published 2024)
Bridges are numbered along the chain shown (N, C = ends). Primed or numbered codes have the meaning given here. [ ]: non-standard residue; d: D form. 8x polyethylene glycol‑amino = O-(8x polyethylene glycol-amino)-tyrosine, SITE 45; 9x polyethylene glycol‑azido = O-(9x polyethylene glycol-azido)-tyrosine, SITE 42; Ygp = O-(8x polyethylene glycol-amino)-tyrosine (Tyr, amino-capped PEG8); Yn3 = O-(9x polyethylene glycol-azido)-tyrosine (Tyr, azide-capped PEG9); Ygp″ = O-(8x polyethylene glycol-amino)-tyrosine; Yn3″ = O-(9x polyethylene glycol-azido)-tyrosine; PEG16′ = 16x polyethylene glycol; PEG24′ = 24x polyethylene glycol; Ygp(6) = Tyr, amino-capped PEG8; Yn3(6) = Tyr, azide-capped PEG9; PEG4′ = 4x polyethylene glycol; PEG9′ = 9x polyethylene glycol; hSer = N[C@@H](CCO)C(=O)O; Nle = CCCC[C@H](N)C(=O)O

T1: IL-2Rβγ on HEK-Blue IL-2Rβγ reporter cells (InvivoGen) (UniProt P14784 27-551; P31785 23-369, limits assumed)
T1 sequence (looked up) 1: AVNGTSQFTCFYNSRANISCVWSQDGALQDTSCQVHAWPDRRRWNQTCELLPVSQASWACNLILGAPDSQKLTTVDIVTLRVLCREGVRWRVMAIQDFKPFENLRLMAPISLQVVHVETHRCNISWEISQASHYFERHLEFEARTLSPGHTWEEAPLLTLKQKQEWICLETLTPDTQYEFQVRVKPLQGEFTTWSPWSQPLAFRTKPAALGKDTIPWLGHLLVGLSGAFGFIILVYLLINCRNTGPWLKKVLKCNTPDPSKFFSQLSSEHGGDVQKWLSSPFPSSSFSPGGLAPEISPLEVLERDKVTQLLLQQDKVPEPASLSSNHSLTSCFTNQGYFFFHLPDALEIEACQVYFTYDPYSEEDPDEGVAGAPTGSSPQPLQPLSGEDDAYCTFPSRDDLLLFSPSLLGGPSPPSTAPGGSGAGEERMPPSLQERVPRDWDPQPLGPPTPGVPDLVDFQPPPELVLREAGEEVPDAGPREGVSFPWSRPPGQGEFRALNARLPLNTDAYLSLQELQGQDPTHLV
T1 sequence (looked up) 2: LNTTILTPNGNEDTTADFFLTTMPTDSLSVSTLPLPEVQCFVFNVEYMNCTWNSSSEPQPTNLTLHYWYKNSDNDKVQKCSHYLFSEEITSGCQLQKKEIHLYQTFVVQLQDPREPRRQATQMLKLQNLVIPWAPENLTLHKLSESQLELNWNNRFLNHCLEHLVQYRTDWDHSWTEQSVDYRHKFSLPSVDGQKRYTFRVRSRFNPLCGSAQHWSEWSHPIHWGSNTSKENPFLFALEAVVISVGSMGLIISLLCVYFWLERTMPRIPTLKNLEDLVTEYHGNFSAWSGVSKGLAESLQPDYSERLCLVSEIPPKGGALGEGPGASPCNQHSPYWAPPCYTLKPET

T2: IL-2 receptor βγ complex (human, UniProt P14784 27-551; P31785 23-369)
T2 sequence (looked up) 1: T1 sequence (looked up) 1
T2 sequence (looked up) 2: T1 sequence (looked up) 2

B1: CMP-329, uPa cleaved (ligand)
chain: APTSSSTKKTQLQLEHLLLDLQEILNGINNYKNPKLTR[Nle]L[hSer][Yn3″]KF[Ygp″][Nle]PKKATELKHLQCLEEELKPLEEVL[hSer]LAQSKNFHLRPRDLISNINVIVLELKGSETTF[hSer]CEYADETATIVEFLNRWITFSQSIISTLT
modifications: ends and bridges not checked; also: uPa-cleaved, cut in the RQRRSVVGG bridge between Lys9 and Glu23, remaining fragments not given here
B2: CMP-329, matriptase cleaved (ligand)
chain: APTSSSTKKTQLQLEHLLLDLQEILNGINNYKNPKLTR[Nle]L[hSer][Yn3″]KF[Ygp″][Nle]PKKATELKHLQCLEEELKPLEEVL[hSer]LAQSKNFHLRPRDLISNINVIVLELKGSETTF[hSer]CEYADETATIVEFLNRWITFSQSIISTLT
modifications: ends and bridges not checked; also: after matriptase cleavage, remnants of the Lys9–Glu23 peptide linker not given here
B3: CMP-300, MMP2 cleaved (ligand)
chain: APTSSSTKKTQLQLEHLLLDLQEILNGINNYKNPKLTR[Nle]L[hSer][Yn3″]KF[Ygp″][Nle]PKKATELKHLQCLEEELKPLEEVL[hSer]LAQSKNFHLRPRDLISNINVIVLELKGSETTF[hSer]CEYADETATIVEFLNRWITFSQSIISTLT
modifications: ends and bridges not checked; also: MMP2 cleaved, ring opened, cut site and remnants not given here
B4: CMP-321, matriptase cleaved (ligand)
chain: SGRVQPLVDAPTSSSTKKTQLQLEHLLLDLQEILNGINNYKNPKLTR[Nle]L[hSer][Yn3(6)]KF[Ygp(6)][Nle]PKKATELKHLQCLEEELKPLEEVL[hSer]LAQSKNFHLRPRDLISNINVIVLELKGSETTF[hSer]CEYADETATIVEFLNRWITFSQSIISTLT
modifications: not fully specified (bridges)
B5: CMP-330, matriptase cleaved (ligand)
chain: APTSSSTKKTQLQLEHLLLDLQEILNGINNYKNPKLTR[Nle]L[hSer]Y(9x polyethylene glycol‑azido)KFY(8x polyethylene glycol‑amino)[Nle]PKKATELKHLQCLEEELKPLEEVL[hSer]LAQSKNFHLRPRDLISNINVIVLELKGSETTF[hSer]CEYADETATIVEFLNRWITFSQSIISTLT
modifications: not fully specified; also: before the cut Lys9 and Glu23 side chains are bridged by a peptide linker, what remains after the cut not given here
B6: CMP-300 (ligand)
chain: GPLGLAG[PEG4′]APTSSSTKKTQLQLEHLLLDLQEILNGINNYKNPKLTR[Nle]L[hSer][Yn3″]KF[Ygp″][Nle]PKKATELKHLQCLEEELKPLEEVL[hSer]LAQSKNFHLRPRDLISNINVIVLELKGSETTF[hSer]CEYADETATIVEFLNRWITFSQSIISTLT
modifications: lactam N-31; ends not checked
B7: CMP-330, uPa cleaved (ligand)
chain: APTSSSTKKTQLQLEHLLLDLQEILNGINNYKNPKLTR[Nle]L[hSer]Y(9x polyethylene glycol‑azido)KFY(8x polyethylene glycol‑amino)[Nle]PKKATELKHLQCLEEELKPLEEVL[hSer]LAQSKNFHLRPRDLISNINVIVLELKGSETTF[hSer]CEYADETATIVEFLNRWITFSQSIISTLT
modifications: not fully specified; also: before the cut Lys9 and Glu23 side chains are bridged by a peptide linker, what remains after the cut not given here
B8: CMP-154 (ligand)
chain: PLGLAGAPTSSSTKKTQLQLEHLLLDLQ[Nle]ILNGIENYKNPKLTR[Nle]L[hSer][Yn3″]KF[Ygp″][Nle]PKKATELKHLQCLEEELKPLEEVL[hSer]LAQSKNFHLRPRDLISNINVIVLELKGSETTF[hSer]CEYADETATIVEFLNRWITFSQSIISTLT
modifications: linker N-35 via PEG9′
B9: CMP-152 (ligand)
chain: PLGLAGAPTSSSTKKTQLQLEHLLLDLQ[Nle]ILNGINNYKNPKLTR[Nle]L[hSer][Yn3″]KF[Ygp″][Nle]PKKATELKHLQCLEEELKPLEEVL[hSer]LAQSKNFHLRPRDLISNINVIVLELKGSETTF[hSer]CEYADETATIVEFLNRWITFSQSIISTLT
modifications: linker N-38 via PEG9‑glutaryl
B10: CMP-154, MMP2 cleaved molecule (ligand)
chain: PLGLAGAPTSSSTKKTQLQLEHLLLDLQ[Nle]ILNGIENYKNPKLTR[Nle]L[hSer][Yn3″]KF[Ygp″][Nle]PKKATELKHLQCLEEELKPLEEVL[hSer]LAQSKNFHLRPRDLISNINVIVLELKGSETTF[hSer]CEYADETATIVEFLNRWITFSQSIISTLT
modifications: not fully specified (bridges); also: MMP2 cleaved, site not given here
B11: CMP-139, MMP2 cleaved molecule (ligand)
chain: APTSSSTKKTQLQLEHLLLDLQ[Nle]ILNGIENYKNPKLTR[Nle]L[hSer][Yn3]KF[Ygp][Nle]PKKATELKHLQCLEEELKPLEEVL[hSer]LAQSKNFHLRPRDLISNINVIVLELKGSETTF[hSer]CEYADETATIVEFLNRWITFSQSIISTLT
modifications: ends and bridges not checked; also: cleaved by MMP2, cleavage product not defined, N-terminal PEG16 link and Glu29 side-chain attachment of the cleavable peptide not defined
B12: CMP-137, MMP2 cleaved molecule (ligand)
chain: APTSSSTKKTQLQLEHLLLDLQ[Nle]ILNGIENYKNPKLTR[Nle]L[hSer][Yn3]KF[Ygp][Nle]PKKATELKHLQCLEEELKPLEEVL[hSer]LAQSKNFHLRPRDLISNINVIVLELKGSETTF[hSer]CEYADETATIVEFLNRWITFSQSIISTLT
modifications: ends and bridges not checked; also: cleaved by MMP2, cleavage product not defined, N-terminal PEG24 link and Glu29 side-chain attachment of the cleavable peptide not defined
B13: CMP-152, MMP2 cleaved molecule (ligand)
chain: PLGLAGAPTSSSTKKTQLQLEHLLLDLQ[Nle]ILNGINNYKNPKLTR[Nle]L[hSer][Yn3″]KF[Ygp″][Nle]PKKATELKHLQCLEEELKPLEEVL[hSer]LAQSKNFHLRPRDLISNINVIVLELKGSETTF[hSer]CEYADETATIVEFLNRWITFSQSIISTLT
modifications: not fully specified (bridges); also: MMP2 cleaved, site not given here
B14: CMP-137 (ligand)
chain: [PEG24′]PLGLAG[PEG24′]APTSSSTKKTQLQLEHLLLDLQ[Nle]ILNGIENYKNPKLTR[Nle]L[hSer][Yn3]KF[Ygp][Nle]PKKATELKHLQCLEEELKPLEEVL[hSer]LAQSKNFHLRPRDLISNINVIVLELKGSETTF[hSer]CEYADETATIVEFLNRWITFSQSIISTLT
modifications: bridge (positions not given here); not fully specified (bridges); ends not checked
B15: CMP-139 (ligand)
chain: [PEG16′]SGGPGPAGMKGLPGS[PEG16′]APTSSSTKKTQLQLEHLLLDLQ[Nle]ILNGIENYKNPKLTR[Nle]L[hSer][Yn3]KF[Ygp][Nle]PKKATELKHLQCLEEELKPLEEVL[hSer]LAQSKNFHLRPRDLISNINVIVLELKGSETTF[hSer]CEYADETATIVEFLNRWITFSQSIISTLT
modifications: bridge (positions not given here); not fully specified (bridges); ends not checked

Target: T1, IL-2Rβγ on HEK-Blue IL-2Rβγ reporter …
Test: cell-based or functional assay

Average EC50, HEK-Blue IL-2R (CD122+, CD132+) Reporter Assay, uPa cleaved molecule	Average EC50, HEK-Blue IL-2R (CD122+, CD132+) Reporter Assay, Matriptase cleaved molecule	Average EC50, HEK-Blue IL-2R (CD122+, CD132+) Reporter Assay, MMP2 cleaved molecule	Average EC50, HEK-Blue IL-2R (CD122+, CD132+) Reporter Assay, intact molecule	Binder
1.41 nM	–	–	–	B1
–	1.47 nM	–	–	B2
–	–	0.0094 nM	–	B3
–	4.22 nM	–	–	B4
–	2.15 nM	–	–	B5
–	–	–	0.711 nM	B6
1.73 nM	–	–	–	B7

Target: T2, IL-2 receptor βγ complex
Test: cell-based or functional assay

Average EC50, pSTAT5 Assay (T cells)	Binder
24.7 nM	B8
16.1 nM	B9
4.2 nM	B10
3.61 nM	B11
4.09 nM	B12
2.95 nM	B13
27.1 nM	B14
21.3 nM	B15
